Legend:
HLA-A*02:02 = test: IEDB peptide-MHC binding, purified MHC/competitive/radioactivity; ≥ and ≤ were set here for values at or beyond the usual limits of such assays
HLA-A*02:03 = test: as above
HLA-A*68:02 [1] = test: as above
HLA-A*02:01 [2] = test: as above
HLA-A*02:06 [3] = test: IEDB peptide-MHC binding, cellular MHC/competitive/fluorescence; ≥ and ≤ were set here for values at or beyond the usual limits of such assays
HLA-A*02:06 [4] = test: IEDB peptide-MHC binding, purified MHC/competitive/radioactivity; ≥ and ≤ were set here for values at or beyond the usual limits of such assays
HLA-A*68:02 [5] = test: IEDB peptide-MHC binding, cellular MHC/competitive/fluorescence; ≥ and ≤ were set here for values at or beyond the usual limits of such assays
HLA-A*02:01 [6] = test: as above; conditions: source organism: Vaccinia virus WR
[7] = source organism: Hepacivirus hominis
[8] = source organism: Vaccinia virus WR
[9] = source organism: Mammarenavirus machupoense
[10] = source organism: Mammarenavirus brazilense

Row | Sequence | IC50 (HLA-A*02:02; [8]) | IC50 (HLA-A*02:03; [8]) | IC50 (HLA-A*02:01 [2]; [8]) | IC50 (HLA-A*02:06 [4]; [8]) | IC50 (HLA-A*68:02 [5]; [8]) | further results
1 | VLIVMLLFA |  |  |  |  |  | IC50 (HLA-A*02:02; [7]): 1620 nM; IC50 (HLA-A*02:03; [7]): 435 nM; IC50 (HLA-A*68:02 [1]; [7]): 4550 nM; IC50 (HLA-A*02:01 [2]; [7]): 2360 nM; IC50 (HLA-A*02:06 [3]; [7]): 8420 nM
2 | NTNQGNILM | 1700 nM | 1150 nM | 4580 nM |  |  | IC50 (HLA-A*68:02 [1]; [8]): 664 nM; IC50 (HLA-A*02:06 [3]; [8]): 5940 nM
3 | YLSDSDNIKI | 16 nM | 109 nM | 53 nM | 906 nM | 7780 nM | 
4 | ELWARISSSL | 175 nM | 324 nM | 1320 nM |  |  | IC50 (HLA-A*68:02 [1]; [8]): 22 nM; IC50 (HLA-A*02:06 [3]; [8]): 9300 nM
5 | ALLRMCALV |  |  |  |  |  | IC50 (HLA-A*02:02; [7]): 83 nM; IC50 (HLA-A*02:03; [7]): 65 nM; IC50 (HLA-A*02:01 [2]; [7]): 34 nM; IC50 (HLA-A*02:06 [4]; [7]): 417 nM; IC50 (HLA-A*68:02 [5]; [7]): 6490 nM
6 | QVLQQNNSFI | 544 nM | 3180 nM | 1470 nM | 2320 nM | 9960 nM | 
7 | CLWWTCYMLV |  |  |  |  |  | IC50 (HLA-A*02:02; [7]): 1870 nM; IC50 (HLA-A*02:03; [7]): 891 nM; IC50 (HLA-A*02:01 [2]; [7]): 271 nM; IC50 (HLA-A*02:06 [4]; [7]): 2700 nM; IC50 (HLA-A*68:02 [5]; [7]): 10300 nM
8 | MLDDFSAGA | 68 nM | 73 nM | 0.43 nM | 114 nM | 10500 nM | 
9 | NITPDDGLGL | 1910 nM | 1290 nM |  | 3450 nM | 12600 nM | IC50 (HLA-A*02:01 [6]): 6530 nM
10 | IMRNFLRSI | 485 nM | 0.4 nM | 2060 nM | 3920 nM | 62700 nM | 
11 | AIYVFCISL |  |  |  |  |  | IC50 (HLA-A*02:02; source organism: SARS-CoV1): 143 nM; IC50 (HLA-A*02:03; source organism: SARS-CoV1): 201 nM; IC50 (HLA-A*02:01 [2]; source organism: SARS-CoV1): 119 nM; IC50 (HLA-A*02:06 [4]; source organism: SARS-CoV1): 48 nM; IC50 (HLA-A*68:02 [5]; source organism: SARS-CoV1): 5470 nM
12 | LALTDVEKRI | 199 nM | 403 nM | 1420 nM | 2410 nM | 14900 nM | 
13 | VLWTVFHGA |  |  |  |  |  | IC50 (HLA-A*02:02; [7]): 759 nM; IC50 (HLA-A*02:03; [7]): 836 nM; IC50 (HLA-A*02:01 [2]; [7]): 100 nM; IC50 (HLA-A*02:06 [4]; [7]): 189 nM; IC50 (HLA-A*68:02 [5]; [7]): 34800 nM
14 | YALCTLLHL |  |  |  |  |  | IC50 (HLA-A*02:02; source organism: SARS-CoV1): 1320 nM; IC50 (HLA-A*02:03; source organism: SARS-CoV1): 768 nM; IC50 (HLA-A*02:01 [2]; source organism: SARS-CoV1): 8.7 nM; IC50 (HLA-A*02:06 [4]; source organism: SARS-CoV1): 1.5 nM; IC50 (HLA-A*68:02 [5]; source organism: SARS-CoV1): 5620 nM
15 | PTILATLNTL | 374 nM | 130 nM | 1340 nM | 771 nM | 9740 nM | 
16 | GLLYFILFFV |  |  |  |  |  | IC50 (HLA-A*02:02; [7]): 141 nM; IC50 (HLA-A*02:03; [7]): 187 nM; IC50 (HLA-A*02:01 [2]; [7]): 51 nM; IC50 (HLA-A*02:06 [4]; [7]): 678 nM; IC50 (HLA-A*68:02 [5]; [7]): 23200 nM
17 | LLDCIMYQS |  |  |  |  |  | IC50 (HLA-A*02:02; [9]): 1540 nM; IC50 (HLA-A*02:03; [9]): 2270 nM; IC50 (HLA-A*02:01 [2]; [9]): 1100 nM; IC50 (HLA-A*02:06 [4]; [9]): 3280 nM; IC50 (HLA-A*68:02 [5]; [9]): 11300 nM

Row | Sequence | IC50 (HLA-A*02:02; [8]) | IC50 (HLA-A*02:03; [8]) | IC50 (HLA-A*02:01 [2]; [8]) | IC50 (HLA-A*02:06 [4]; [8]) | IC50 (HLA-A*68:02 [5]; [8]) | further results
18 | GLIHACMLV |  |  |  |  |  | IC50 (HLA-A*02:02; [7]): 1.5 nM; IC50 (HLA-A*02:03; [7]): 1.9 nM; IC50 (HLA-A*02:01 [2]; [7]): 1.3 nM; IC50 (HLA-A*02:06 [4]; [7]): 12 nM; IC50 (HLA-A*68:02 [5]; [7]): 37400 nM
19 | YNYSLSAAV |  |  |  |  |  | IC50 (HLA-A*02:02; [10]): 79 nM; IC50 (HLA-A*02:03; [10]): 67 nM; IC50 (HLA-A*02:01 [2]; [10]): 539 nM; IC50 (HLA-A*02:06 [4]; [10]): 88 nM; IC50 (HLA-A*68:02 [5]; [10]): ≥ 70000 nM
20 | AVTLNRIKIA | 1720 nM | 1290 nM | 1250 nM | 2290 nM | 11000 nM | 
21 | FLLALLSCI |  |  |  |  |  | IC50 (HLA-A*02:02; [7]): 8.7 nM; IC50 (HLA-A*02:03; [7]): 7.3 nM; IC50 (HLA-A*02:01 [2]; [7]): 2.4 nM; IC50 (HLA-A*02:06 [4]; [7]): 15 nM; IC50 (HLA-A*68:02 [5]; [7]): ≥ 70000 nM
22 | GLRQQLEDI | 43 nM | 4.7 nM | 125 nM | 4310 nM | ≥ 70000 nM | 
23 | GINNVQSLI | 474 nM | 378 nM |  | 1720 nM | 30800 nM | IC50 (HLA-A*02:01 [6]): 11700 nM
24 | CLLTDTIESA | 53 nM | 102 nM | 188 nM | 92 nM | 22200 nM | 
25 | QLYTISSESL | 72 nM | 245 nM |  | 4740 nM | 6880 nM | IC50 (HLA-A*02:01 [6]): 5290 nM
26 | FLFLAWIMLL |  |  |  |  |  | IC50 (HLA-A*02:02; source organism: SARS-CoV1): 19 nM; IC50 (HLA-A*02:03; source organism: SARS-CoV1): 56 nM; IC50 (HLA-A*02:01 [2]; source organism: SARS-CoV1): 80 nM; IC50 (HLA-A*02:06 [4]; source organism: SARS-CoV1): 1010 nM; IC50 (HLA-A*68:02 [5]; source organism: SARS-CoV1): 6180 nM
27 | YLGHSAGFTA | 16 nM | 86 nM | 21 nM | 144 nM | 8220 nM | 
28 | LLPLTSLVI | 2390 nM | 621 nM | 1180 nM | 1430 nM | ≥ 70000 nM | 
29 | RILGAGCFV |  |  |  |  |  | IC50 (HLA-A*02:02; source organism: SARS-CoV1): 24 nM; IC50 (HLA-A*02:03; source organism: SARS-CoV1): 53 nM; IC50 (HLA-A*02:01 [2]; source organism: SARS-CoV1): 20 nM; IC50 (HLA-A*02:06 [4]; source organism: SARS-CoV1): 38 nM; IC50 (HLA-A*68:02 [5]; source organism: SARS-CoV1): 7010 nM
30 | GMQFDKVYL | 13 nM | 277 nM | 72 nM | 1900 nM | 17200 nM | 
31 | ALSGVFCGV |  |  |  |  |  | IC50 (HLA-A*02:02; source organism: SARS-CoV1): 1.2 nM; IC50 (HLA-A*02:03; source organism: SARS-CoV1): 12 nM; IC50 (HLA-A*02:01 [2]; source organism: SARS-CoV1): 13 nM; IC50 (HLA-A*02:06 [4]; source organism: SARS-CoV1): 50 nM; IC50 (HLA-A*68:02 [5]; source organism: SARS-CoV1): 22500 nM
32 | FLYIIKLVFL |  |  |  |  |  | IC50 (HLA-A*02:02; source organism: SARS-CoV1): 7.3 nM; IC50 (HLA-A*02:03; source organism: SARS-CoV1): 22 nM; IC50 (HLA-A*02:01 [2]; source organism: SARS-CoV1): 19 nM; IC50 (HLA-A*02:06 [4]; source organism: SARS-CoV1): 865 nM; IC50 (HLA-A*68:02 [5]; source organism: SARS-CoV1): 26400 nM
33 | LLKCVSDSWL | 76 nM | 118 nM | 1530 nM | 4730 nM | 9850 nM | 
